One block for each substance: values may come before it.
Key:
Assay in all cases: fluorescence polarisation
[1] = biological target: KPNB1 HEAT, tag cleaved, for affinity measurements
[2] = biological target: 14-3-3 protein sigma (14-3-3 SFN), tag cleaved, for affinity measurements
[3] = biological target: KPNA4 ARM, MBP-tagged, for affinity measurements
[4] = biological target: MDM2 SWIB, cleaved from the His-GST tag, for affinity measurements
[5] = biological target: TLN1 PTB, tag cleaved, for affinity measurements

Substance: MAP1A_(1836-1851) synthetic peptide
Ki [2]: 355 µM

Substance: RNF115_(69-84) synthetic peptide (from UniProt Q9Y4L5 69-84)
Ki [4]: 0.17 µM

Substance: integrin beta-3 ITB3_(763-778) synthetic peptide
Ki [5]: 500 µM

Further lines, results first:

Ki [1]: 1000 µM
Substance: KPNA2_(514-529) C-terminal synthetic peptide (from UniProt P52292 514-529)

fold loss of affinity against wild-type NKX2-5 (192-207) [3]: 10 fold
Substance: NKX2-5_(192-207) K194R synthetic peptide (from UniProt P52952 192-207)

Ki [4]: 3.3 µM
Substance: NUMB_(615-630) synthetic peptide (from UniProt P49757 615-630)

From publication doi:10.1101/2021.04.13.439572
